The text below walks through data of PMC3489787, “Characterization of EssB, a protein required for secretion of ESAT-6 like proteins in Staphylococcus aureus” (BMC Microbiology, 2012).

This data set concerns the molecule itself. The data set is described as follows: SEC; about 100 ug of each purified protein, tags removed, on Superdex 75 10/300 GL in 50 mM Tris-HCl pH 8.0, 150 mM NaCl, 1 mM DTT at 4 °C, 0.5 ml/min; fractions on Coomassie-stained SDS-PAGE; calibrated with aldolase 158, conalbumin 75, ovalbumin 43, myoglobin 17 kDa (the results name a Sephacryl S-200 column). On the technique in general: Size exclusion chromatography separates by hydrodynamic size, large species first.

B1: EssB^MC (domain or fragment)
chain: RKVGHTVFKWVAIGMTTLSVLLIAFLAFLYFSVMKHNERIEKGYQAFVKDDYTQVLNTYDDLDGKKLDKEALYIYAKSYIQTNKQGLEKDKKENLLNNVTPNSNKDYLLYWMELGQGHLDEAINIATYLDDNDITKLALINKLNEIKNNGDLSNDKRSEETKKYNDKLQDILDKEKQVKDEKAKSEEEKAKAKDEKLKQQEENEKKQKEQAQKDKEKRQEAERKK
notes: EssB of Staphylococcus aureus, codons 220-444, C-terminal domain with the PTMD (229-251); also called EssB^CM; his-essB^CM product; source: E. coli, pET15b, purified (Ni-NTA Agarose, thrombin cleavage); not shown: His6, N-terminal, cleaved
With B1, the binding result was “binds”.

B2: EssB^NM (domain or fragment)
chain: MVKNHNPKNEMQDMLTPLDAEEAAKTKLRLDMREIPKSSIKPEHFHLMYLLEQHSPYFIDAELTELRDSFQIHYDINDNHTPFDNIKSFTKNEKLRYLLNIKNLEEVNRTRYTFVLAPDELFFTRDGLPIAKTRGLQNVVDPLPVSEAEFLTRYKALVICAFNEKQSFDALVEGNLELHKGTPFETKVIEAATLDLLTAFLDEQYQKQEQDYSQNYAYVRKVGHTVFKWVAIGMTTLSVLLIAFLAFLYFSV
notes: EssB of Staphylococcus aureus, codons 1-252, N-terminal domain with the PTMD (229-251); also called his-essB^NM product; EssB(1-252); source: E. coli, pET15b, purified (Ni-NTA Agarose, thrombin cleavage); not shown: His6, N-terminal, cleaved
As to B2, the binding result is “binds”.
